Positions count from the first letter of the chain named.
B1: human β-TrCP with a deletion of the F box region residues 122-168, FLAG-tagged (protein)
chain: MDPAEAVLQEKALKFMNSSEREDCNNGEPPRKIIPEKNSLRQTYNSCARLCLNQETVCLASTAMKTENCVAKTKLANGTSSMIVPKQRKLSASYEKEKELCVKYFEQWSESDQVEFVEHLISQMCHYQHGHINSYLKPMLQRDFITERMVRTDSLWRGLAERRGWGQYLFKNKPPDGNAPPNSFYRALYPKIIQDIETIESNWRCGRHSLQRIHCRSETSKGVYCLQYDDQKIVSGLRDNTIKIWDKNTLECKRILTGHTGSVLCLQYDERVIITGSSDSTVRVWDVNTGEMLNTLIHHCEAVLHLRFNNGMMVTCSKDRSIAVWDMASPTDITLRRVLVGHRAAVNVVDFDDKYIVSASGDRTIKVWNTSTCEFVRTLNGHKRGIACLQYRDRLVVSGSSDNTIRLWDIECGACLRVLEGHEELVRCIRFDNKRIVSGAYDGKIKVWDLVAALDPRAPAGTLCLRTLVEHSGRVFRLQFDEFQIVSSSHDDTILIWDFLNDPAAQAEPPRSPSRTYTYISR
B2: human β-TrCP, FLAG-tagged (protein)
chain: MDPAEAVLQEKALKFMNSSEREDCNNGEPPRKIIPEKNSLRQTYNSCARLCLNQETVCLASTAMKTENCVAKTKLANGTSSMIVPKQRKLSASYEKEKELCVKYFEQWSESDQVEFVEHLISQMCHYQHGHINSYLKPMLQRDFITALPARGLDHIAENILSYLDAKSLCAAELVCKEWYRVTSDGMLWKKLIERMVRTDSLWRGLAERRGWGQYLFKNKPPDGNAPPNSFYRALYPKIIQDIETIESNWRCGRHSLQRIHCRSETSKGVYCLQYDDQKIVSGLRDNTIKIWDKNTLECKRILTGHTGSVLCLQYDERVIITGSSDSTVRVWDVNTGEMLNTLIHHCEAVLHLRFNNGMMVTCSKDRSIAVWDMASPTDITLRRVLVGHRAAVNVVDFDDKYIVSASGDRTIKVWNTSTCEFVRTLNGHKRGIACLQYRDRLVVSGSSDNTIRLWDIECGACLRVLEGHEELVRCIRFDNKRIVSGAYDGKIKVWDLVAALDPRAPAGTLCLRTLVEHSGRVFRLQFDEFQIVSSSHDDTILIWDFLNDPAAQAEPPRSPSRTYTYISR
B3: mouse β-TrCP, FLAG-tagged (protein)
chain: B2 chain with L52I, A60T, T73A, G224E, N295S, T336A, V498M, Q553H

Biological target: T1, IKK-phosphorylated IκBα in the IκBα/NF-κB complex
T1 chain: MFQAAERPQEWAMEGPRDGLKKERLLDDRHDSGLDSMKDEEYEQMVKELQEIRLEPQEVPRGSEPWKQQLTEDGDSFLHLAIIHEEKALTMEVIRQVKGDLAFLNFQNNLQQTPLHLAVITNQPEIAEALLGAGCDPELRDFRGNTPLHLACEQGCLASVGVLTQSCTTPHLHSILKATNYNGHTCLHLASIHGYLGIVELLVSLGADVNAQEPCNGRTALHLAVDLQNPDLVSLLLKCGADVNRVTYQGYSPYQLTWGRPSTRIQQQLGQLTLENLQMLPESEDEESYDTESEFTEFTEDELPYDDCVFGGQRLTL

Protein	in vitro ubiquitination of pIκBα in the presence of E1 and E2 (UBC5C)
B1	failed to promote ubiquitination (lanes 7 and 8), in spite of its binding capacity
B2	the wild type β-TrCP proteins facilitated the ubiquitination of pIκBα, but not of the non-phosphorylated IκBα
B3	the wild type β-TrCP proteins facilitated the ubiquitination of pIκBα, but not of the non-phosphorylated IκBα
